B1: HDV Ribozyme (parent)
chain: GGCCGGCAUGGUCCCAGCCUCCUCGCUGGCGCCGGCUGGGCAACAUUCCGAGGGGACCGUCCCCUCGGUAAUGGCGAAUGGGACCCA

Variants of: B1
Assay: self-cleavage, relative activity (ratio to wild type); higher = more cleavage; co-transcriptional

Variant	self-cleavage
C4U U37G	0
C32G U72G	0.0519
U60G G82U	0.309
G40C G54U	0.205
G1C C86G	0.268
G29C U65C	0.138
G17C C44G	0.0723
U20C G82U	0.0449
G52A G67C	0.878
C3U G38U	0.111
G34U A83G	0.169
C14A U46C	0.237
C48G U65A	0.511
G1C A78G	0.0573
U9G U23A	0.782
U60G G82C	0.133
A8U G50C	0.939
G2U U47C	0
G76C C86A	0.854
C14U	1.09
C33A G38A	0.0386
U46G U65A	0.582
C19U C64G	0.0923
A8U C57U	0.91

Variant	self-cleavage
C14G G25U	0.0504
U12C C44G	0
C33G A87U	0.151
A45C C58G	0.724
G74A G81C	0.218
U27A G39C	0.0504
G5U A42U	0.208
G5A C48U	0.0405
G73A C86G	0.609
G68C G74C	0.181
G34A G50U	0.187
A56G G74A	0.45
C26G G28U	0.0396
U23G U27C	0.511
G2A G67A	0.11
U9G C85G	0.895
C7A G35U	0.0906
A51U C75U	0.177
G6C C57A	0.346
C30A A43C	0.0326
G73C C84U	0.321
G11A C64G	0.705
C13U C66U	0.698
G5U A16G	0.175

Variant	self-cleavage
U27A A83C	0.739
C19A A71U	0.0978
C18A C57A	0.219
G5C C44U	0.0504
U46G A83U	0
C32U A70G	0.85
G68U U72G	0.359
C62U U79G	0.831
A51U G53U	1.11
C14U U72C	0.532
C33A C84A	0.0811
C3G C24G	0.102
U60C G68C	0.755
A43U G76C	0.181
C22A C57U	0.343
G39U G68C	0.532
G11U G54C	0.57
A43G A45C	0.0504
C57U A78U	0.119
G73A C84U	0.665
G29U A83C	0.0692
U69G A71U	0.974
C48G G59A	0.92
G29U G35C	0

Variant	self-cleavage
G5U U65G	0.475
C19G C66G	0.141
A16C U65G	0.755
G6U C36G	0
G34U G53U	0.223
C62A C66G	0.623
G28C A56U	0.138
G53U U72A	0.798
G1A G25A	0.0739
A78U G81U	0.269
C33U G59A	0.897
G31U C57G	0.439
U9C G59C	1.09
U12G G76A	0.917
C21U A70G	0.271
C49G U72A	0.0692
A87C	1.01
G11U A83C	0.119
C32A G81A	0.0779
C3A A8U	0.269
G40A G68C	0.794
C32G G59A	0.0489
C19A G40U	0.0437
G31A C41U	0.269

Variant	self-cleavage
C14G A43U	0.138
G54U G74A	0.601
C48A C62G	0.359
C49U C61A	0.76
C14G G39A	0.277
A8G G80U	0.173
G5A G54U	0.113
U37A G82C	0.0405
C48G C58A	1.14
C26G U47A	0.87
U9G G50C	1.01
A16U G31A	0.409
G1C G10U	0.143
G6C A83C	0.0875
U37C C64G	0.604
C7G G76A	0.172
C15A A87U	0.746
C22G G38C	0.391
G5C G68C	0
C61U C62U	0.644
G74A C86U	0.604
G28A C85G	0.0332
C44G C48U	0.517
G35C G50A	0.0528

Variant	self-cleavage
C4G A71C	0.192
U23G G29C	0.196
G11C C19U	0.0302
C30A G38C	0.203
A16C C30U	0.449
A8U U9A	0.63
C21A C30A	0.0373
A8U G29U	0.0437
C44A A83U	0.0615
U12G A77U	0.443
C41U G53C	1.05
C14A G38A	0
C7U G80C	0.0773
G53A U60G	1.01
G40U C48G	0.665
G67A U69A	1
G54U C57G	1.1
G35A	0.605
G31C A83G	0.219
C22G A51C	0.116
C3G U72A	0.237
C33G G68A	0.177
C24G C84U	0.12
G6A C36G	0.0811

Variant	self-cleavage
U60G A83U	0.415
C22U C36G	0.162
A16G C33A	0.268
G35C U72G	0.346
G10C G74C	0.161
G6C G29C	0.161
G34C C62U	0.262
C49U A56C	0.773
C33A G54U	0.198
C33A G34A	0.166
G40U C84A	0.383
G5A G68U	0.146
G55U C66U	0.973
C3G C24U	0.196
G74A G80C	0.167
U9G G76U	1.13
C14G C19A	0
C14G G38U	0.106
U12G G31C	0.138
C26U C84A	1.15
U20C U46C	0
G11C C18A	0.0804
C18A C44A	0.17

Reference: the RNAGym collection of RNA variant scans (doi:10.7554/elife.80360)
